Results from patent publication US20100233758A1.

Target: glycoprotein D of HSV-1 KOS/tk12 (wild type HSV-1 KOS carrying a lacZ reporter gene) (herpes simplex virus 1 (HSV-1 KOS))
Assay: cell-based or functional assay

## recombinant sHveA102 protein (receptor)
  percentage of cells infected with the virus (X-gal staining): 70%
